In patent publication US12018068B2, “Anti-O1 antibodies and uses thereof” (priority 2016, dated 2024):

B1: 54H7: mouse hybridoma anti-O1 antigen antibody (Ms IgG3), VH SEQ ID NO:47, VL SEQ ID NO:48 (antibody, V domains shown)
VH: QVHLQQPGSELVRPGASVTLSCKASGYTFTNYWMQWVKQRPGQGLEWIGNIYPGSGNTNYDEKFRSKATLTVDTSSSTAYMHLTSLTSEDSAVYYCTRNWNFDYWGQGTTLTVSS
VL: DIQMTQSPSSLSASLGERVSLTCRASQDIGSSLNWLQQEPDGTIKRLIYATSSLDSGVPKRFSGSRSGSEYSLTISSLEAEDFVDYYCLQHTDSPYTFGGGTKLELK
modifications: 54H7 VH; 54H7 VL Amino Acid Sequence
B2: KPE33: human anti-K. pneumoniae O1 antigen antibody, VH SEQ ID NO:8, VL SEQ ID NO:9, isolated as IgG2 from donor #262 (antibody, V domains shown)
VH: EVQLVESGGALVQPGGSLRLSCAVSGFIFDDYAIHWVRRAPGKGLEWVSGIAWKSGATNYADSVKGRFAISRDNSKKSMYLQMNSLGTEDTALYYCTRRRASGDDTFYYFDYWGQGTLVTVSS
VL: EIVLTQSPATLSLSPGERATLSCRASQNVNTNLAWYQQRPGQSPRLLIYDASTRAAGLPARFSGSGSGTDFTLTISSLEPEDFAVYYCQQCTNWRYTFGQGTKLEIK
modifications: KPE33 VH Amino Acid Sequence; KPE33 VL Amino Acid Sequence

What was measured:
[1] = tested on: γδ T cell recruitment, K. pneumoniae Kp8045 infection; experiment: flow cytometry of γδTCR+ T cells in lungs of infected mice; format: in vivo; conditions: for early γδ T cell recruitment, prophylaxis: 1e4 CFU Kp8045, FIG. 14A; for γδ T cell recruitment, treatment 1 hour post infection: 1e4 CFU Kp8045, FIG. 14B
Procedure: TLR4 signaling has been implicated in the recruitment and activation of γδ T cells, a key cell population in the innate immune defense of the mucosa. In order to examine the effect of LPS-neutralizing and LPS-non-neutralizing anti-O1 antibodies on γδ T cell recruitment, the percent of γδTCR^+ T cells was measured in the lungs of mice treated with anti-O1 antibodies and infected with K. pneumoniae (1e4 CFU Kp8045).

LPS (O1) = experiment: LPS neutralization assay, RAW264.7-lux NF-κB luciferase reporter; format: cell-based, murine
Procedure: LPS neutralization was assayed by utilizing a murine RAW264.7 macrophage cell line carrying a firefly luciferase reporter gene under the control of an NF-κB-responsive promoter (RAW264.7-lux). Serially diluted antibody stocks were mixed with LPS in a 1:1 ratio and incubated at 4° C. for 1 hr. Antibody/LPS mixture was then diluted 1:10 into assay plates containing pre-seeded RAW264.7-lux cells (5e3 cells/well), which were then placed at 37° C./5% CO2 for 2.5 hours. Following incubations, Steady Glo (Promega) was then added to each well and incubated for another 20 min protected from light. The relative light units (RLUs) were then measured using an Envision Multilabel plate reader (Perkin Elmer). The percentage of inhibition was determined by comparing RLU derived from assays with no antibodies to RLU obtained from anti-K. pneumoniae mAbs and a negative control mAb. Activation of TLR4 receptors by bacterial LPS leads to downstream activation of the NF-κB transcriptional regulator. A decrease in induction of NF-κB-responsive luciferase activity was used to quantify LPS neutralization activity by LPS mAbs.

purified O1 LPS = experiment: ELISA binding to purified O1 LPS; design: species or system Klebsiella pneumoniae; conditions: FIG. 1A
Procedure: Binding to purified O1 LPS was assayed by standard ELISA method. Briefly, ELISA plates (Nunc MaxiSorp) were coated with purified O1 LPS in PBS, pH 7.2, overnight at 4 C, followed by blocking the plates with PBS supplemented with 1% BSA (PBS-B). The coated plates were incubated with series dilutions of monoclonal antibodies for 1 h at room temperature. The plates were then washed with PBS containing 0.1% Tween-20 (PBS-T) before HRP-conjugated anti-human secondary antibodies were added for 1 hour followed by TMB TMB (3,3′,5,5′-Tetrametheylbenzidine) substrates. The absorbance of 450 nm was measured by microplate reader (Molecular Devices) and the data were plotted with Prism software.

[2] = tested on: K. pneumoniae capsule mutant strain 43816ΔcpsB Lux; experiment: bioluminescent opsonophagocytic killing (OPK) assay with HL-60 cells; format: cell-based, Klebsiella pneumoniae; conditions: for induction of OPK killing: FIG. 1C
Procedure: (§1) PBMC donors were ranked based on their binding titers as well as their SBA and OPK activity. OPK assays were performed as described with modifications (Wang, Q. et al. Target-Agnostic Identification of Functional Monoclonal Antibodies Against Klebsiella pneumoniae Multimeric MrkA Fimbrial Subunit J Infect Dis. 2016 Jun. 1; 213(11):1800-8). Briefly, log phase cultures of luminescent K. pneumoniae capsule mutant strain 43816ΔcpsB (43816ΔcpsB Lux) were diluted to ˜2×10^6 cells/ml. Bacteria, diluted baby rabbit serum providing complement (Cedarlane, pre-absorbed with Kp43816ΔcpsB, 1:10), dimethylformamide (DMF) differentiated HL-60 cells, and sera were mixed in 384-well plates and incubated at 37° C. for two hours with shaking (250 rpm). The relative light units (RLUs) were then measured using an Envision Multilabel plate reader (Perkin Elmer). The percentage of killing was determined by comparing RLU derived from assays with no antibodies to RLU obtained from human sera.
as §1, with “OPK” for “PBMC donors were ranked based on their binding titers as well as their SBA and OPK activity. OPK”, “al., J. Infect.” for “al. Target-Agnostic Identification of Functional Monoclonal Antibodies Against Klebsiella pneumoniae Multimeric MrkA Fimbrial Subunit J Infect”, “213:1800-8 (2016)).” for “2016 Jun. 1; 213(11):1800-8).”, “antibodies” for “sera”, “anti-K. pneumoniae mAbs and a negative control mAb.” for “human sera.”

[3] = tested on: K. pneumoniae (1e4 CFU Kp8045); experiment: survival of wild type and IL-17A−/− mice after lethal K. pneumoniae infection; format: in vivo, Klebsiella pneumoniae; conditions: prophylactic treatment
Text: γδ T cells are major producers of IL-17, which activates key antimicrobial pathways and the phagocytic function of neutrophils. […] Wild type and IL-17A−/− mice were prophylactically treated with c-IgG, 54H7, or KPE33 and infected with a lethal number of K. pneumoniae.

[4] = tested on: K. pneumoniae strain Kp4211 lux; experiment: high throughput serum bactericidal assay (SBA), complement-dependent killing; format: cell-based, Klebsiella pneumoniae; conditions: for complement-dependent killing in SBA: FIG. 1B
Procedure: Peripheral blood mononuclear cells (PBMC) and sera were separated from buffy coats from healthy blood donors (N=567). PMBC were stored in liquid nitrogen whereas the plasma was stored at 4° C. To identify Klebsiella pneumoniae immune donors, all the available sera were tested for binding to Kp43816 and Kp4211 (LPS-O1 serotype), as well as to the unencapsulated mutant strain Kp43816ΔcpsB and the double mutant Kp43816ΔcpsBΔwaaL. […] In addition, all available sera were tested for their bactericidal activity in the presence of complement using a high-throughput serum bactericidal assay (SBA assay). Overnight cultures of luminescent K. pneumoniae strain 4211 (lux) were diluted in Muller Hinton II media to make OD600 to be 0.003. Equal volume of sera, 4211 lux, and baby rabbit serum (Cedarlane) were mixed in 384 well plates and incubated at 37° C. for two hours with shaking (250 rpm). The relative light units (RLUs) were then measured using an Envision Multilabel plate reader (Perkin Elmer). The percentage of killing was determined by comparing RLU derived from assays with no antibodies to RLU obtained from human sera.
The susceptibility of the K. pneumoniae strain Kp4211 lux to serum and antibody dependent killing was measured by high throughput serum bactericidal assay (SBA). Overnight cultures of luminescent K. pneumoniae strain 4211 (lux) were diluted in Muller Hinton II media to make OD600 to be 0.003. Equal volume of antibodies, 4211 lux, and baby rabbit serum (Cedarlane) were mixed in 384 well plates and incubated at 37° C. for two hours with shaking (250 rpm). The relative light units (RLUs) were then measured using an Envision Multilabel plate reader (Perkin Elmer). The percentage of killing was determined by comparing RLU derived from assays with no antibodies to RLU obtained from anti-K. pneumoniae mAbs and a negative control mAb.

[5] = tested on: Kp1131115 wild type and Kp1131115ΔwbbYZ strain; experiment: FACS binding to Kp1131115 wild type and Kp1131115ΔwbbYZ; design: species or system Klebsiella pneumoniae; conditions: Kp1131115ΔwbbYZ vs wild type
Text: Klebsiella pneumoniae wbbYZ gene locus encodes D-Galactan II domain in LPS structure, which defines O1 serotype over O2.

| Molecule | early γδ T cell recruitment, prophylaxis [1] | γδ T cell recruitment, treatment 1 hour post infection [1] | LPS Neut (O1) IC50 (LPS (O1)) [ng/mL] | LPS neutralization (LPS (O1)) | binding to purified O1 LPS (purified O1 LPS) | D Capsule OPK IC50 [2] [ng/mL] | induction of OPK killing [2] | survival of IL-17A−/− mice compared to wild type mice [3] | SBA Kp4211lux IC50 [4] [ng/mL] | complement-dependent killing in SBA [4] | effect of wbbYZ gene knockout on binding [5] | complement-dependent killing (SBA) in primary screening ([4]; strain Kp4211 (LPS-O1)) |
| --- | --- | --- | --- | --- | --- | --- | --- | --- | --- | --- | --- | --- |
| B1 | inhibited | did not inhibit recruitment | <0.1 | neutralized LPS | bound to purified O1 LPS | 2.5 | induced OPK killing | No difference in survival | 5.2 | kill K. pneumoniae via complement-dependent killing | completely abolished the binding | – |
| B2 | not | did not inhibit recruitment | – | did not | bound to purified O1 LPS | 2.5 | induced OPK killing | significant reduction in survival | 64 | kill K. pneumoniae via complement-dependent killing | completely abolished the binding | mediate complement-dependent killing |
